Measured values taken from PMC11696079 (Nature Communications, 2025).
“And” between values parts separate entries of the source, which are not always exact repeats. Identical values can stand only once.

Target: recombinant wild-type PKM2 (WT) (UniProt P14618 1-531)
Test: SPR

Sequence of recombinant wild-type PKM2 (WT) (P14618 whole entry): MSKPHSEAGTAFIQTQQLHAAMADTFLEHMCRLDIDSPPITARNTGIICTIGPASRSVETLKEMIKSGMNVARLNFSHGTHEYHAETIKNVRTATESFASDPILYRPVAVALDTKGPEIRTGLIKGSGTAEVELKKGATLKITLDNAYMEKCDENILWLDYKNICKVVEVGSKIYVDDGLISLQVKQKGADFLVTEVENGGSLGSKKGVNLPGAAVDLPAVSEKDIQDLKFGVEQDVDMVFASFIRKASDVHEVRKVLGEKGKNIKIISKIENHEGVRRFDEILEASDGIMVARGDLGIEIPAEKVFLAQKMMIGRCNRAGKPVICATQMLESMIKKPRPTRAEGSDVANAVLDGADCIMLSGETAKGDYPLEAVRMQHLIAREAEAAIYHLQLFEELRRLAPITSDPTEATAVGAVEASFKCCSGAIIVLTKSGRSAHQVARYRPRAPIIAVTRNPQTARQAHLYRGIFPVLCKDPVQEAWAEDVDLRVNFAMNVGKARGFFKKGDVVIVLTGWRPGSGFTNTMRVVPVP

B1: recombinant wild-type ALDOA (WT) (enzyme)
chain: PYQYPALTPEQKKELSDIAHRIVAPGKGILAADESTGSIAKRLQSIGTENTEENRRFYRQLLLTADDRVNPCIGGVILFHETLYQKADDGRPFPQVIKSKGGVVGIKVDKGVVPLAGTNGETTTQGLDGLSERCAQYKKDGADFAKWRCVLKIGEHTPSALAIMENANVLARYASICQQNGIVPIVEPEILPDGDHDLKRCQYVTEKVLAAVYKALSDHHIYLEGTLLKPNMVTPGHACTQKFSHEEIAMATVTALRRTVPPAVTGITFLSGGQSEEEASINLNAINKCPLLKPWALTFSYGRALQASALKAWGGKKENLKAAQEEYVKRALANSLACQGKYTPSGQAGAAASESLFVSNHAY
  Kd: 382 nM and 322 nM
